Where a chain is given by its changes, count along the chain named. Several values for one entry are separate records, joined by “and”; a condition that tells them apart may be missing. Identical values can stand only once. Entries after “also recorded” stand apart in the source; their conditions may differ.
System: H1 or H9 human embryonic stem cells
Experiment: Activin A bioassay: differentiation of human embryonic stem cells to definitive endoderm, cell number and SOX17 intensity by high content analysis (96-well, four days);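 on Sox 17 Intensity average: total fluorescence of the cell multiplied by cell area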
Assay type: cell-based
Description: Activin A is an important mediator of differentiation in a broad range of cell types. […] A bioassay that measures this differentiation in human embryonic stem cells was adapted in miniaturized format to 96-well plates for screening purposes. Validation was completed using treatment with commercial sources of activin A and Wnt3a recombinant proteins and measuring protein expression of the transcription factor SOX17, which is considered a representative marker of definitive endoderm.
Live Cell Assay: Briefly, clusters of H1 or H9 human embryonic stem cells were grown on growth factor-reduced MATRIGEL™ (Invitrogen; Cat #356231)-coated tissue culture plastic. Cells were passaged using collagenase (Invitrogen; Cat # Cat #17104-019) treatment and gentle scraping, washed to remove residual enzyme, and plated in a ratio of 1:1 (surface area) on growth factor-reduced MATRIGEL™-coated 96-well plates (black, 96-well; Packard ViewPlates; Cat #6005182). Cells were allowed to attach as clusters and then recover log phase growth over a 1 to 3 day period, feeding daily with MEF conditioned medium supplemented with 8 ng/ml bFGF (R&D Systems; Cat #233-FB).
The assay was initiated by washing the wells of each plate twice in PBS and followed by adding an aliquot (100 μl) of test sample in DMEM:F12 basal medium (Invitrogen; Cat #11330-032) to each well. Test conditions were performed in triplicate, feeding […] by aspirating and replacing the medium from each well with test samples over a total four day assay period. On the first and second day of assay, test samples added to the assay wells were diluted in DMEM:F12 with 0.5% FCS (HyClone; Cat #SH30070.03) and 20 ng/ml Wnt3a (R&D Systems; Cat #1324-WN). On the third and fourth day of assay, test samples added to the assay wells were diluted in DMEM:F12 with 2% FCS, without any Wnt3a. Positive control samples consisted of recombinant human activin A (Peprotech; Cat #120-14) added at a concentration of 100 ng/ml throughout assay plus Wnt3a (20 ng/ml) on days 1 and 2. Negative control samples omitted treatment with both activin A and Wnt3a.
High Content Analysis: At the conclusion of four days of culture, assay plates were washed twice with PBS, fixed with 4% paraformaldehyde at room temperature for 20 minutes, then washed three times with PBS and permeabilized with 0.5% Triton X-100 for 20 minutes at room temperature. Cells were washed again three times with PBS and blocked with 4% chicken serum (Invitrogen; Cat #16110082) in PBS for 30 minutes at room temperature. Primary antibody (goat anti-human SOX17; R&D Systems; cat #AF1924) was diluted 1:100 in 4% chicken serum and added to each well for one hour at room temperature. Alexa Fluor 488 conjugated secondary antibody (chicken anti-goat IgG; Molecular Probes; Cat #) was diluted 1:200 in PBS and added to each sample well after washing three times with PBS. To counterstain nuclei, 4 μg/ml Hoechst 33342 (Invitrogen; Cat #H3570) was added for ten minutes at room temperature. Plates were washed once with PBS and left in 100 μl/well PBS for imaging.
Imaging was performed using an IN Cell Analyzer 1000 (GE Healthcare) utilizing the 51008bs dichroic for cells stained with Hoechst 33342 and Alexa Fluor 488. Exposure times were optimized from positive control wells and from untreated negative control wells stained with secondary antibody alone. Images from 15 fields per well were acquired to compensate for any cell loss during the bioassay and subsequent staining procedures. Measurements for total cell number and total SOX17 intensity were obtained from each well using IN Cell Developer Toolbox 1.7 (GE Healthcare) software. Segmentation for the nuclei was determined based on grayscale levels (baseline range 100-300) and nuclear size. Averages and standard deviations were calculated for each replicate data set. […]

[1] = supernatant concentration 1x, assay dilution 1:20
[2] = supernatant concentration 1x, assay dilution 1:20, control = R&D Sys Activin A 100 ng/ml on same plate
[3] = supernatant concentration 10x, assay dilution 1:20
[4] = concentrated supernatant (10x; ACTD3 4x), assay dilution 1:20
[5] = supernatant concentration 10x, assay dilution 1:20, control = R&D Sys Activin A 100 ng/ml on same plate
[6] = supernatant concentration 10x, assay dilution 1:40
[7] = supernatant concentration 10x, assay dilution 1:40, control = R&D Sys Activin A 100 ng/ml on same plate

R&D Sys Activin A
Cell Number average (assay concentration 6.25 ng/ml): 5540
Sox 17 Intensity % of control (assay concentration 6.25 ng/ml): 13%
Sox 17 Intensity average (assay concentration 6.25 ng/ml): 5.49E+06
Cell Number average (assay concentration 12.5 ng/ml): 5784
Sox 17 Intensity % of control (assay concentration 12.5 ng/ml): 19%
Sox 17 Intensity average (assay concentration 12.5 ng/ml): 8.10E+06
Cell Number average (assay concentration 25 ng/ml): 6212
Sox 17 Intensity % of control (assay concentration 25 ng/ml): 39%
Sox 17 Intensity average (assay concentration 25 ng/ml): 1.69E+07
Cell Number average (assay concentration 50 ng/ml): 6218
Sox 17 Intensity % of control (assay concentration 50 ng/ml): 33%
Sox 17 Intensity average (assay concentration 50 ng/ml): 1.45E+07
Cell Number average (assay concentration 100 ng/ml): 8680
Sox 17 Intensity % of control (assay concentration 100 ng/ml): 100%
Sox 17 Intensity average (assay concentration 100 ng/ml): 4.37E+07
Cell Number average (assay concentration 200 ng/ml): 12032
Sox 17 Intensity % of control (assay concentration 200 ng/ml): 285%
Sox 17 Intensity average (assay concentration 200 ng/ml): 1.25E+08
Cell Number average (assay concentration 400 ng/ml): 13961
Sox 17 Intensity % of control (assay concentration 400 ng/ml): 396%
Sox 17 Intensity average (assay concentration 400 ng/ml): 1.73E+08

B1: OriGene wildtype: wildtype human activin A expressed from commercial OriGene construct (Cat. No. TC118774, pCMV6-XL4); supernatant used as positive control (protein, UniProt P08476 311-426, looked up)
Inhibin beta A chain: GLECDGKVNICCKKQFFVSFKDIGWNDWIIAPSGYHANYCEGECPSHIAGTSGSSLSFHSTVINHYRMRGHSPFANLKSCCVPTKLRPMSMLYYDDGQNIIKKDIQNMIVEECGCS
modifications: Inhibin beta A chain activin A homodimer
improvement of functional activity on concentrating the supernatant (HEK293-E supernatant, 4× concentrated versus 1× (neat)): approximately 1.5 fold
activity (SOX17 intensity) of supernatants (HEK293-E supernatants, OriGene in pCMV6-XL4 compared with ACTN 1 in pcDNA3.1(−)): much greater activity; also recorded: superior
Cell Number average [1]: 979
Sox 17 Intensity average [1]: 1.819E+07
Sox 17 Intensity % of control [2]: 9.9%
Cell Number average [3]: 5548
Sox 17 Intensity average [3]: 2.035E+08
Cell Number average (supernatant concentration 10x, assay dilution 1:20, assay plates #007, #009, #010, listed as OriGENE WT): 12727 and 7061 and 11356
Cell Number average (supernatant concentration 50x, assay dilution 1:20, assay plates #008, #009, listed as OriGENE WT): 12200 and 9025
Sox 17 Intensity % of control (supernatant concentration 50x, assay dilution 1:20, control = R&D Sys Activin A 100 ng/ml on same plate, listed as OriGENE WT): 409.0% and 285.3%

B2: ACTN16: activin A variant peptide, SEQ ID 17 (protein)
chain: B1 Inhibin beta A chain with I10L, F16L, Y39H, E41S, E43L, A75S, N76Q, L77M, K78G, S79A
Cell Number average [4]: 8775
Sox 17 Intensity average [4]: 3.89E+07
Sox 17 Intensity % of control (concentrated supernatant (10x; ACTD3 4x), assay dilution 1:20, control = R&D Sys Activin A 100 ng/ml): 89%
higher potency of supernatant concentrated 10× relative to corresponding unconcentrated supernatant (primary screening, SOX17 expression, H1 cells): 4 fold
Cell Number average [1]: 7068
Sox 17 Intensity average [1]: 1.36E+07
Sox 17 Intensity % of control [2]: 52.7%
Cell Number average [3]: 11118
Sox 17 Intensity average [3]: 5.55E+07
Sox 17 Intensity % of control [5]: 214.4%
Cell Number average [6]: 11064
Sox 17 Intensity average [6]: 6.46E+07
Sox 17 Intensity % of control [7]: 249.3%

B3: ACTN35: activin A variant peptide, SEQ ID 36 (protein)
chain: B1 Inhibin beta A chain with I10L, F16D, Y39R, E41S, E43K, A75S, N76D, L77M, K78G
Cell Number average [1]: 8553
Sox 17 Intensity average [1]: 7.94E+04
Sox 17 Intensity % of control [2]: 0.3%
Cell Number average [3]: 6805
Sox 17 Intensity average [3]: 1.26E+06
Sox 17 Intensity % of control [5]: 4.3%
Cell Number average [6]: 7926
Sox 17 Intensity average [6]: 6.76E+05
Sox 17 Intensity % of control [7]: 2.3%

B4: R&D Sys Activin A (protein, UniProt P08476 311-426, looked up)
Inhibin beta A chain: B1 Inhibin beta A chain
modifications: Inhibin beta A chain activin A homodimer
Sox 17 Intensity % of control (100 ng/ml (the control itself)): 100%
Sox 17 Intensity % of control (100 ng/ml (the plate's control itself)): 100%

B5: ACTN38: activin A variant peptide, SEQ ID 39 (protein)
chain: B1 Inhibin beta A chain with I10L, F16D, Y39K, E41G, E43K, A75S, N76Q, K78G, S79A
Cell Number average [1]: 2023
Sox 17 Intensity average [1]: 9.26E+04
Sox 17 Intensity % of control [2]: 1.0%
Cell Number average [3]: 3019
Sox 17 Intensity average [3]: 3.89E+05
Sox 17 Intensity % of control [5]: 4.2%
Cell Number average [6]: 2520
Sox 17 Intensity average [6]: 3.56E+04
Sox 17 Intensity % of control [7]: 0.4%

B6: ACTN39: activin A variant peptide, SEQ ID 40 (protein)
chain: B1 Inhibin beta A chain with I10L, F16N, Y39E, E41S, E43L, A75S, N76D, L77M, K78G
Cell Number average [1]: 1596
Sox 17 Intensity average [1]: 5.13E+04
Sox 17 Intensity % of control [2]: 0.5%
Cell Number average [3]: 3362
Sox 17 Intensity average [3]: 1.31E+06
Sox 17 Intensity % of control [5]: 14.0%
Cell Number average [6]: 1331
Sox 17 Intensity average [6]: 4.81E+05
Sox 17 Intensity % of control [7]: 5.1%

B7: ACTN41: activin A variant peptide, SEQ ID 42 (protein)
chain: GLECDGKVNLCCKKQDFVSFKDIGWNDWIIAPSGYHANSCSGLCPSHIAGTSGSSLSFHSTVINHYRMRGHSPFSDRGACCIPTKLRPMSMLYYDDGQNIIKKDIQNMIVEECGCS
Cell Number average [1]: 6073
Sox 17 Intensity average [1]: 1.42E+05
Sox 17 Intensity % of control [2]: 1.5%
Cell Number average [3]: 1397
Sox 17 Intensity average [3]: 1.46E+05
Sox 17 Intensity % of control [5]: 1.6%
Cell Number average [6]: 2643
Sox 17 Intensity average [6]: 6.30E+04
Sox 17 Intensity % of control [7]: 0.7%

B8: ACTN43: activin A variant peptide, SEQ ID 44 (protein)
chain: B7 chain with L10Y, S39R, S41D, L43K, R77M, I82V
Cell Number average [1]: 657
Sox 17 Intensity average [1]: 1.85E+04
Sox 17 Intensity % of control [2]: 0.2%
Cell Number average [3]: 877
Sox 17 Intensity average [3]: 2.13E+05
Sox 17 Intensity % of control [5]: 2.3%
Cell Number average [6]: 1251
Sox 17 Intensity average [6]: 5.57E+04
Sox 17 Intensity % of control [7]: 0.6%

B9: ACTN44: activin A variant peptide, SEQ ID 45 (protein)
chain: B7 chain with D16N, S39E, L43K, R77M
Cell Number average [1]: 3657
Sox 17 Intensity average [1]: 5.01E+04
Sox 17 Intensity % of control [2]: 0.5%
Cell Number average [3]: 1508
Sox 17 Intensity average [3]: 3.24E+05
Sox 17 Intensity % of control [5]: 3.5%
Cell Number average [6]: 2272
Sox 17 Intensity average [6]: 1.58E+05
Sox 17 Intensity % of control [7]: 1.7%

B10: ACTN45: activin A variant peptide, SEQ ID 46 (protein)
chain: B7 chain with L10T, D16N, S39E, L43K, S75A, D76N, R77M
Cell Number average [1]: 4591
Sox 17 Intensity average [1]: 1.48E+05
Sox 17 Intensity % of control [2]: 1.6%
Cell Number average [3]: 2058
Sox 17 Intensity average [3]: 1.13E+05
Sox 17 Intensity % of control [5]: 1.2%
Cell Number average [6]: 4482
Sox 17 Intensity average [6]: 2.30E+04
Sox 17 Intensity % of control [7]: 0.2%
